Reference: paper PMC5363614, “Secreted protein acidic and rich in cysteine (SPARC) induces lipotoxicity in neuroblastoma by regulating transport of albumin complexed with fatty acids” (Oncotarget, 2016)

Molecular target: T1, Bovine serum albumin (bovine, UniProt P02769 25-607)
T1 construct: Serum albumin, bovine (BSA); Unlabelled BSA used as analyte in SPR; also called BSA; source: bought: Sigma-Aldrich
Assay: SPR; BIAcore 3000; histidine-tagged SPARC immobilised on Sensor NTA chip to about 100 RU; BSA as analyte, room temperature, 20 ul/minute, 5 minutes association, 5 minutes dissociation; global Langmuir fitting
Settings: both partners purified

T1 sequence (P02769 25-607): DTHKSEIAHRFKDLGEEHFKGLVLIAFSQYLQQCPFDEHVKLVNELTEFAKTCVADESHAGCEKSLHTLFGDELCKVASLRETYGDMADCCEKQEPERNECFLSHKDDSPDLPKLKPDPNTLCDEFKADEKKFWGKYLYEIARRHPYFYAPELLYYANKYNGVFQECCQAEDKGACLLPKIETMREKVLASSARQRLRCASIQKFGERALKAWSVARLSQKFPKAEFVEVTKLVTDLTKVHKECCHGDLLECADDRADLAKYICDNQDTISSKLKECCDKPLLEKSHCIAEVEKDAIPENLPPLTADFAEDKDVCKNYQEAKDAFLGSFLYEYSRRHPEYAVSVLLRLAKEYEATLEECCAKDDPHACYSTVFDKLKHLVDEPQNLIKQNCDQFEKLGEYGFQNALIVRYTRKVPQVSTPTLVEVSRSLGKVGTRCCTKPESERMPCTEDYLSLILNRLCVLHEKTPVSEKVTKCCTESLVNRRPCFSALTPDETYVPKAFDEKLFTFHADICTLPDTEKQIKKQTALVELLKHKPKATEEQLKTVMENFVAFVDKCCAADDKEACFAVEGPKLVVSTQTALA

Kd: 18.9 µM
B1: Recombinant human SPARC (secreted protein acidic and rich in cysteine), histidine-tagged (natural protein, UniProt P09486 18-303, looked up)
chain: APQQEALPDETEVVEETVAEVTEVSVGANPVQVEVGEFDDGAEETEEEVVAENPCQNHHCKHGKVCELDENNTPMCVCQDPTSCPAPIGEFEKVCSNDNKTFDSSCHFFATKCTLEGTKKGHKLHLDYIGPCKYIPPCLDSELTEFPLRMRDWLKNVLVTLYERDEDNNLLTEKQKLRVKKIHENEKRLEAGDHPVELLARDFEKNYNMYIFPVHWQFGQLDQHPIDGYLSHTELAPLRAPLIPMEHCTTRFFETCDLDNDKYIALDEWAGCFGIKQKDIDKDLVI
notes: Secreted protein acidic and rich in cysteine (SPARC), human, recombinant; The histidine tag is named for the SPR experiment; also called rhSPARC; histidine-tagged recombinant SPARC; source: HEK293 cells transfected with SPARC, serum-free conditioned media; purified as described [25]
